167 variants from the RNAGym collection of RNA variant scans (doi:10.7554/elife.80360) can be followed below.

The labels stand for the following.
B1: Hammerhead Ribozyme (parent)
chain: ACCGGAUGUGCUUUCCGGUCUGAUGAGUCCGUGAGGACGAAACAG

Variants of B1 are the subject of this data set. Nature of the data set: self-cleavage, relative activity (ratio to wild type); higher = more cleavage; co-transcriptional.
A23C U24A: the self-cleavage turned out to be 0.397.
In the case of A23C U24C, the self-cleavage came out at 0.505.
For the variant U24A U32G, the self-cleavage is 0.644.
Consider U24A U32C, for which the self-cleavage came out at 0.569.
Regarding U24A U32A, the self-cleavage was 0.859.
As to U24C G39A, the self-cleavage worked out at 0.337.
Regarding U24C G39C, the self-cleavage was found to be 0.352.
Turning to U24C G39U, the self-cleavage stood at 0.333.
Regarding A23G A41C, the self-cleavage worked out at 0.34.
For the variant A23G A41U, the self-cleavage turned out to be 0.298.
Turning to A23G A41G, the self-cleavage turned out to be 0.334.
Next, A23C U28G: 0.398.
For the variant A23C U28C, the self-cleavage stood at 0.352.
For A23C U28A, the self-cleavage came to 0.262.
As to A23U A41U, the self-cleavage was found to be 0.307.
A23U A41C: the self-cleavage stood at 0.33.
For A23U A41G, the self-cleavage was found to be 0.301.
Next, A23G A44G: 0.55; A23G A44U: 0.339.
Regarding A23G A44C, the self-cleavage worked out at 0.353.
Regarding A23C C43A, the self-cleavage is 0.343.
On to A23C C43G, for which the self-cleavage is 0.274.
As for A23C C43U, the self-cleavage was 0.325.
For U24G A37G, the self-cleavage came to 0.659.
Regarding U24G A37U, the self-cleavage stood at 0.854.
As to U24G A37C, the self-cleavage came to 1.05.
Regarding A23C C30A, the self-cleavage is 0.306.
For A23C C30U, the self-cleavage worked out at 0.578.
For the variant A23C C30G, the self-cleavage was determined as 0.354.
For U24C A40G, the self-cleavage stood at 0.27.
On to U24C A40C, for which the self-cleavage amounted to 0.47.
Consider U24C A40U, for which the self-cleavage turned out to be 0.281.
A23C G27C: the self-cleavage was determined as 0.328.
A23C G27U: the self-cleavage amounted to 0.256.
Next, A23C G27A: 0.341; A23G G31U: 0.448; A23G G31A: 0.403.
Turning to A23G G31C, the self-cleavage was 0.442.
For the variant A23C G36C, the self-cleavage was 0.351.
In the case of A23C G36U, the self-cleavage is 0.335.
Consider A23C G36A, for which the self-cleavage was determined as 0.412.
With A23C G25A, the self-cleavage was 0.331.
To A23C G25U belongs 0.298.
Turning to A23C G25C, the self-cleavage came to 0.37.
Next, U24A A26C: 0.602.
To U24A A26G belongs 0.332; to U24A A26U, 0.756.
Turning to A23U C38G, the self-cleavage was determined as 0.357.
With A23U C38U, the self-cleavage stood at 0.341.
With A23U C38A, the self-cleavage was 0.381.
Consider A23U G39A, for which the self-cleavage was 0.331.
With A23U G39C, the self-cleavage was 0.341.
Next, A23U G39U: 0.315; A23G U24C: 0.488; A23G U24G: 0.283.
To A23G U24A belongs 0.645; to U24A A40U, 0.359; to U24A A40C, 0.421.
U24A A40G: the self-cleavage stood at 0.337.
For U24A G36C, the self-cleavage is 0.362.
To U24A G36A belongs 0.669; to U24A G36U, 0.618.
Turning to A23U A40U, the self-cleavage was found to be 0.371.
To A23U A40G belongs 0.237.
Regarding A23U A40C, the self-cleavage was found to be 0.348.
With A23U A34U, the self-cleavage turned out to be 0.28.
A23U A34C: the self-cleavage is 0.345.
For A23U A34G, the self-cleavage turned out to be 0.358.
Next, U24A C30U: 0.785.
Next, U24A C30G: 1.04.
Consider U24A C30A, for which the self-cleavage was 0.928.
Regarding U24C A37G, the self-cleavage stood at 0.9.
As to U24C A37C, the self-cleavage was determined as 1.02.
For U24C A37U, the self-cleavage worked out at 0.768.
As for U24A A42U, the self-cleavage was 0.354.
Take U24A A42G: the self-cleavage is 0.24.
As to U24A A42C, the self-cleavage came out at 0.363.
Consider A23U C30A, for which the self-cleavage came to 0.463.
To A23U C30G belongs 0.345; to A23U C30U, 0.402; to U24C A42G, 0.228.
Regarding U24C A42U, the self-cleavage was 0.286.
As to U24C A42C, the self-cleavage worked out at 0.316.
As for A23G G45A, the self-cleavage is 0.331.
Consider A23G G45C, for which the self-cleavage was determined as 0.33.
A23G G45U: the self-cleavage amounted to 0.297.
With A23U G33C, the self-cleavage was determined as 0.262.
For the variant A23U G33U, the self-cleavage was determined as 0.551.
For A23U G33A, the self-cleavage is 0.524.
With A23C G35C, the self-cleavage came to 0.408.
To A23C G35A belongs 0.397.
Turning to A23C G35U, the self-cleavage stood at 0.408.
Take A23C G45U: the self-cleavage was found to be 0.377.
For A23C G45C, the self-cleavage was determined as 0.376.
A23C G45A: the self-cleavage amounted to 0.302.
On to U24C U32C, for which the self-cleavage turned out to be 1.2.
U24C U32A: the self-cleavage turned out to be 1.18.
U24C U32G: the self-cleavage is 0.802.
For U24C C29A, the self-cleavage amounted to 0.416.
Take U24C C29U: the self-cleavage was 1.05.
To U24C C29G belongs 0.605; to U24C G31C, 1.02; to U24C G31U, 0.982.
To U24C G31A belongs 0.924; to A23C C38A, 0.327; to A23C C38U, 0.316.
In the case of A23C C38G, the self-cleavage was determined as 0.371.
Regarding U24A A41U, the self-cleavage was found to be 0.279.
As for U24A A41G, the self-cleavage came to 0.473.
On to U24A A41C, for which the self-cleavage came to 0.371.
Consider A23G A42U, for which the self-cleavage came out at 0.335.
With A23G A42C, the self-cleavage turned out to be 0.31.
As for A23G A42G, the self-cleavage was determined as 0.324.
As for U24G C30U, the self-cleavage is 0.996.
In the case of U24G C30G, the self-cleavage stood at 0.727.
Turning to U24G C30A, the self-cleavage is 0.626.
In the case of A23G U28G, the self-cleavage came to 0.386.
Next, A23G U28C: 0.327; A23G U28A: 0.329; A23U G45C: 0.42.
A23U G45A: the self-cleavage was 0.336.
A23U G45U: the self-cleavage was 0.461.
To U24A G45C belongs 0.639.
Take U24A G45U: the self-cleavage stood at 0.832.
Next, U24A G45A: 0.75.
To A23G G33C belongs 0.376; to A23G G33A, 0.465.
Consider A23G G33U, for which the self-cleavage stood at 0.458.
A23G G25A: the self-cleavage amounted to 0.311.
Next, A23G G25U: 0.321.
A23G G25C: the self-cleavage is 0.333.
Regarding A23U C29A, the self-cleavage was 0.352.
As to A23U C29U, the self-cleavage is 0.322.
Turning to A23U C29G, the self-cleavage was 0.345.
With A23U G25C, the self-cleavage stood at 0.31.
Consider A23U G25U, for which the self-cleavage came to 0.315.
To A23U G25A belongs 0.267; to U24C C38G, 0.601.
U24C C38A: the self-cleavage was found to be 0.676.
Consider U24C C38U, for which the self-cleavage was 0.901.
To U24C G36C belongs 0.383; to U24C G36A, 0.56; to U24C G36U, 0.541.
To A23G A40G belongs 0.306; to A23G A40C, 0.355.
Regarding A23G A40U, the self-cleavage amounted to 0.326.
Consider A23G C30U, for which the self-cleavage turned out to be 0.485.
Next, A23G C30A: 0.305.
To A23G C30G belongs 0.248; to A23G C43A, 0.304.
A23G C43G: the self-cleavage was determined as 0.35.
As for A23G C43U, the self-cleavage came out at 0.269.
For the variant U24A C29G, the self-cleavage stood at 0.79.
With U24A C29A, the self-cleavage is 0.786.
Take U24A C29U: the self-cleavage was 0.883.
For the variant U24A G39U, the self-cleavage is 0.464.
U24A G39A: the self-cleavage turned out to be 0.382.
On to U24A G39C, for which the self-cleavage is 0.496.
For A23U A42G, the self-cleavage was determined as 0.375.
In the case of A23U A42C, the self-cleavage was 0.331.
In the case of A23U A42U, the self-cleavage came to 0.337.
For the variant U24G A42C, the self-cleavage was determined as 0.343.
For U24G A42U, the self-cleavage came to 0.324.
To U24G A42G belongs 0.346; to U24G A41U, 0.323.
As to U24G A41G, the self-cleavage came out at 0.308.
For the variant U24G A41C, the self-cleavage was determined as 0.322.
